From publication PMC9283941, “Self-activating G protein α subunits engage seven-transmembrane regulator of G protein signaling (RGS) proteins and a Rho guanine nucleotide exchange factor effector in the amoeba Naegleria fowleri” (The Journal of Biological Chemistry, 2022)

Columns and labels:
[1] = molecular target: T1, Nf Gα5 (Naegleria fowleri, UniProt A0A6A5BQC6); assay: intrinsic tryptophan fluorescence (activation, return after hydrolysis); type: biochemical; settings: 0.5 μM protein, 1 μM nucleotide, 10 mM MgCl2, pH 7.5, 20 °C
T1 construct: gene FDP41_003899; N-terminal TEV-cleavable His6 tag; E. coli
T1 sequence (A0A6A5BQC6 57-394 limits assumed): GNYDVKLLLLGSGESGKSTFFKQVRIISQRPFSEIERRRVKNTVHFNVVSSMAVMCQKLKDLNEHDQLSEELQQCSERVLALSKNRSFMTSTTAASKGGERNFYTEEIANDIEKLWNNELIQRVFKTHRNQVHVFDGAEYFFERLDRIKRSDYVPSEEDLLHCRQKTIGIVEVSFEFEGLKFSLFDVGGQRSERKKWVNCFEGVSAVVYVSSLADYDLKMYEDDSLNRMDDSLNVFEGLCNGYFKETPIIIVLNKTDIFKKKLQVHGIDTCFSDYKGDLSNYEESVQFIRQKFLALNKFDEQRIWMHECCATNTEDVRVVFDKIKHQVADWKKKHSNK

[2] = molecular target: T2, Nf Gα7 (Naegleria fowleri, UniProt A0A6I8WFP8); assay: intrinsic tryptophan fluorescence (activation); type: binding; settings: 0.5 μM protein, 1 μM nucleotide, 10 mM MgCl2, pH 7.5, 20 °C
T2 construct: gene NF0037180; N-terminal TEV-cleavable His6 tag; E. coli
T2 sequence (A0A6I8WFP8 1-321): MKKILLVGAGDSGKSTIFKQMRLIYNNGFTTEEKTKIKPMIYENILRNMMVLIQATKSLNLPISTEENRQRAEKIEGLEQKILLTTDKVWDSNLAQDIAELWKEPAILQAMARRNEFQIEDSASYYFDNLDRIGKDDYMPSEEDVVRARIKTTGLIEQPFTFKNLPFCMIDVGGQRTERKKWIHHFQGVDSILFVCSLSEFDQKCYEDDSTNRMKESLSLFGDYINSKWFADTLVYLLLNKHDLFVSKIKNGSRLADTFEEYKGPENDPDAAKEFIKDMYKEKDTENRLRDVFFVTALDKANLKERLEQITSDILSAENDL

[3] = molecular target: T1, Nf Gα5; assay: intrinsic tryptophan fluorescence (activation); type: binding; settings: 0.5 μM protein, 1 μM nucleotide, 10 mM MgCl2, pH 7.5, 20 °C
[4] = molecular target: Naegleria fowleri G protein α subunit Nf Gα2 (Naegleria fowleri); assay: SPR; Proteon XPR36; ~5000 RU of His6-tagged Gα subunits immobilised on a nickel-NTA chip by covalent capture coupling; RGS domains injected as analyte at 20 μl/min; 50 mM Hepes pH 7.4, 150 mM NaCl, 0.05% NP-40 alternative, 50 μM EDTA, 1 mM MgCl2; Gα in the AMF state (100 μM GDP, 20 mM NaF, 30 μM AlCl3); equilibrium binding analysis
[5] = molecular target: Naegleria fowleri G protein α subunit Nf Gα3 (Naegleria fowleri); assay: as above

Row | Kd [4] | Kd [5] | Compound | intrinsic tryptophan fluorescence (activation, return after hydrolysis) [1] | intrinsic tryptophan fluorescence (activation) [2] | intrinsic tryptophan fluorescence (activation) [3]
1 | – | – | Nc1nc2c(ncn2[C@@H]2O[C@H](COP(=O)(O)OP(=O)(O)OP(=O)(O)O)[C@@H](O)[C@H]2O)c(=O)[nH]1 [GTP] | returned slowly to near-baseline levels after multiple rounds of hydrolysis and exhaustion of available GTP | achieved the active conformation in the presence of either GppNHp or GTP | –
2 | – | – | Nc1nc2c(ncn2[C@@H]2O[C@H](COP(=O)(O)OP(=O)(O)NP(=O)(O)O)[C@@H](O)[C@H]2O)c(=O)[nH]1 [GppNHp] | – | achieved the active conformation in the presence of either GppNHp or GTP | achieved the active conformation in the presence of either GppNHp or GTP
3 | 0.63 µM | 0.55 µM | RGS domain of Naegleria fowleri seven-transmembrane RGS protein Nf 7TM RGS2 (domain or fragment) | – | – | –
4 | – | 1.8 µM | RGS domain of Naegleria fowleri seven-transmembrane RGS protein Nf 7TM RGS4 (domain or fragment) | – | – | –
5 | 2.4 µM | 3.3 µM | RGS domain of Naegleria fowleri Nf RGS-RhoGEF (domain or fragment) | – | – | –
